Measurements from the DeepSol protein solubility set.

test: soluble on expression in E. coli; label from the status in PepcDB or PDB records

Sequence | soluble on expression in E. coli
MSLGRVTITAVAREAGVSAITVSRYFNQPEQVSPELRERIAAVVNALGYVPNLVAGGLASARSRVVAMVIPNISGPIFANTIQGFSDTLSQHGFQLLLASSYFSAEQEESAVRAFLGWSPAALVLTSRFHSPATEKMIEQTDVPVIETWDHQPERSPIQIGFSHYDVGVTAARYLYDKGYRRIAFVQNSIAGDFSALERRDGYIATLEGLGIKPWVFVPDAGRAPFEAGKQAMETLMSQTPRPDAIFFANDNLAAGALLASQRAGLHIPKDCAVMGFGDYAFAEMMLPSLTTIKPPALEIGVLAATRVLESLGVLPVEGDIQRLNLLECRLVERESTEGHHHHHH | soluble
MNFIIEPGSLADIDELERLYDELNDHLSATINYPGWIKGIYPVRENAAAGVDDNSLFVARCDGRIAGSVILDHQPEKAYENIVWKIDADYSYIFVVRTFVVHPSFLQMGVGHALMDFSLELALKSEMKSIRLDVYEKNLPAISLYEKCGFEYIDTVDLGLGHYGLDWFKLYEKVILEHHHHHH | soluble
AIATYPTNLEIIGGQGGSSFSFTGENNGASLEKIWVWVGGWQIKAVRAWLSDGRDETFGVPSGSHQEYVFTPGECFTSLSLWGNGAGTRLGAIKFKTNKGGEFFAHMTSWGLKTEYPMDVGSGYCLGIVGRGGSDIDCMGFMFLNAVQSTVLTNVNYPTINQLIPKVATEEIKSVSFENKTSVKQEQKVETSKKVIKTSSWSMTKSFSSTFSVEVSAGIPEIAEVSTGFSISFGVESTHSLEQTDEKNETLTTTVEVPPKKKVDVHITIGRASFDLPYTGTVKITCKNGSVLQYETKGQYKGVAYTDIKVNTVEKDL | soluble
GFASHQYVNHVEKQRPIVTLAKHPKKVLFFYRDDCPDCQAIFHRIYWHNVISHNVVFINMNQTQNRHYIQQYQLTSVPTLIHGKQRYTGTNQQRIKQIVGD | not soluble
MAKSSSLNVRVVEGRALPAKDVSGSSDPYCLVKVDDEVVARTATVWRSLGPFWGEEYTVHLPLDFHQLAFYVLDEDTVGHDDIIGKISLSREAITADPRGIDSWINLSRVDPDAEVQGEICLSVQMLEDGQGRCLRCHVLQARDLAPRDISGTSDPFARVFWGSQSLETSTIKKTRFPHWDEVLELREMPGAPSPLRVELWDWDMVGKNDFLGMVEFSPKTLQQKPPKGWFRLLPFPRAEEDSGGNLGALRVKVRLIEDRVLPSQCYQPLMELLMESVQGPAEEDTASPLALLEELTLGDCRQDLATKLVKLFLGRGLAGHFLDYLTRREVARTMDPNTLFRSNSLASKSMEQFMKLVGMPYLHEVLKPVISRVFEEKKYMELDPCKMDLGRTRRISFKGALSEEQMRETSLGLLTGYLGPIVDAIVGSVGRCPPAMRLAFKQLHRRVEERFPQAEHQQDVKYLAISGFLFLRFFAPAILTPKLFDLRDQHADPQTSRSLLLLAKAVQSIGNLGQQLGQGKELWMAPLHPFLLQCVSRVRDFLDRLVDVDGDEEAGVPARALFPPSAIVREGYLLKRKEEPAGLATRFAFKKRYVWLSGETLSFSKSPEWQMCHSIPVSHIRAVERVDEGAFQLPHVMQVVTQDGTGALHTTYLQCKNVNELNQWLSALRKASAPNPNKLAACHPGAFRSARWTCCLQAERSAAGCSRTHSAVTLGDWSDPLDPDAEAQTVYRQLLLGRDQLRLKLLEDSNMDTTLEADTGACPEVLARQRAATARLLEVLADLDRAHEEFQQQERGKAALGPLGP | soluble
MGSSHHHHHHSSGLVPRGSHMAAMMSLNDFLSSVLPVSEQFEYLSLQSIPLETHAVVTPNKDDKRVPKSTIKTQHFFSLFHQGKVFFSLEVYVYVTLWDEADAERLIFVSKADTNGYCNTRVSVRDITKIILEFILSIDPNYYLQKVKPAIRSYKKISPELISAASTPARTLRILARRLKQSGSTVLKEIESPRFQQDLYLSFTCPREILTKICLFTRPASQYLFPDSSKNSKKHILNGEELMKWWGFILDRLLIECFQNDTQAKLRIPGEDPARVRSYLRGMKYPLWQVGDIFTSKENSLAVYNIPLFPDDPKARFIHQLAEEDRLLKVSLSSFWIELQERQEFKLSVTSSVMGISGYSLATPSLFPSSADVIVPKSRKQFRAIKKYITGEEYDTEEGAIEAFTNIRDFLLLRMATNLQSLTGKREHRERNQPVPASNINTLAITMLKPRKKAKALPKT | soluble
MRAGIYRRSAGQGAEEKPEAVRAGHRGGGERHHDHAHHDGEGEFVVREELLHGRSVRFRRRSERIDEHEHRQRDRGHAQPGADRGAPGRQRATTGDNVCDGTPGSPHRRVRRRRPAPAA | not soluble
